Laboratory results as given in patent publication US20070219133A1.

Experiments:
[1] = biological target: extracellular region of human F158 FcγRIIIa (human) (UniProt P08637); experiment: SPR
[2] = biological target: His-tagged human V158 FcγRIIIa (immobilized on SPR chip) (human) (UniProt P08637); experiment: SPR, His-tagged V158 FcγRIIIa immobilized
[3] = biological target: human FcγRIIIa on human PBMC effector cells (human) (UniProt P08637); experiment: cell-based or functional assay
[4] = biological target: extracellular region of human V158 FcγRIIIa fused with GST (human) (UniProt P08637); experiment: AlphaScreen competition
[5] = biological target: extracellular region of human F158 FcγRIIIa (human) (UniProt P08637); experiment: AlphaScreen competition
[6] = biological target: extracellular region of human FcγRIIb (human) (UniProt P31994); experiment: AlphaScreen competition, trastuzumab context
[7] = biological target: extracellular region of human FcγRIIb (human) (UniProt P31994); experiment: AlphaScreen competition

Chain of extracellular region of human FcγRIIb (human) (P31994 43-217): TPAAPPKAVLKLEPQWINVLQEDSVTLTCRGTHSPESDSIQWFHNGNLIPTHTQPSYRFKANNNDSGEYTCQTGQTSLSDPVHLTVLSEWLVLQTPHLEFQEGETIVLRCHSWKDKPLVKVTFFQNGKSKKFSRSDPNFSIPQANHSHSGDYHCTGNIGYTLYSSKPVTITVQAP
Chain of His-tagged human V158 FcγRIIIa (immobilized on SPR chip) (human) (P08637 17-208 F176V limits assumed): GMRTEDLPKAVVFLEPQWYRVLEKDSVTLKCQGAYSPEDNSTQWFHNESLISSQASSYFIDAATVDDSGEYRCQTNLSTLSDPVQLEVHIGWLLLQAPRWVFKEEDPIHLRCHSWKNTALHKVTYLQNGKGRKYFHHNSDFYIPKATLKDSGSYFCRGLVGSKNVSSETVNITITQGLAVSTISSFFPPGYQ
Chain of extracellular region of human V158 FcγRIIIa fused with GST (human) (P08637 17-208 F176V): as the sequence (P08637 17-208 F176V limits assumed) above
Chain of extracellular region of human F158 FcγRIIIa (human) (P08637 17-208): as the sequence (P08637 17-208 F176V limits assumed) above, with V160F counted along it

Substance | FcγRIIIa Fold [4] [fold vs WT] | also measured
alemtuzumab Fc variant I332E (antibody) |  | Kd [1]: 72 nM; Kd [2]: 31 nM
alemtuzumab Fc variant S298A (antibody) |  | Kd [1]: 285 nM; Kd [2]: 52 nM
alemtuzumab Fc variant S298A/E333A/K334A (antibody) |  | Kd [1]: 156 nM; Kd [2]: 39 nM
alemtuzumab Fc variant V264I (antibody) |  | Kd [1]: 550 nM; Kd [2]: 64 nM
alemtuzumab Fc variant V264I/I332E (antibody) | 12.5 | Fold [1]: 14 fold vs WT; Kd [1]: 52 nM; Fold [2]: 4 fold vs WT; Kd [2]: 17 nM; ADCC EC50 (ng/ml), DoHH-2 targets, PBMCs heterozygous V158/F158 FcγRIIIa [3]: 4 ng/mL; ADCC Fold Improvement Over WT [3]: 2.5 fold; Fold [4]: 12.8 fold vs WT; IC50 [4]: 0.5 nM; Fold [5]: 15.6 fold vs WT; IC50 [5]: 1.1 nM
alemtuzumab Fc variant W313F (antibody) | 0.88 | 
trastuzumab Fc variant E283R (antibody) | 0.67 | 
trastuzumab Fc variant E318R (antibody) | 1.06 | 
trastuzumab Fc variant E333T (antibody) | 0.78 | 
trastuzumab Fc variant F275W (antibody) | 1.11 | 
trastuzumab Fc variant K274L (antibody) | 1.09 | 
trastuzumab Fc variant K274R (antibody) | 1.41 | 
trastuzumab Fc variant K326T (antibody) | 1.88 | 
trastuzumab Fc variant N276E (antibody) | 0.87 | 
trastuzumab Fc variant N276Y (antibody) | 0.56 | 
trastuzumab Fc variant P230A/E233D (antibody) | 0.92 | 
trastuzumab Fc variant S239D (antibody) |  | FcγRIIb Fold [6]: 4.47 fold vs WT
trastuzumab Fc variant S239D/A330Y/I332E/K326E (antibody) | 64.1 | 
trastuzumab Fc variant S239D/A330Y/I332E/V240I (antibody) | 28 | 
trastuzumab Fc variant S239D/I332E (antibody) |  | FcγRIIb Fold [6]: 19.7 fold vs WT
trastuzumab Fc variant S239N/S298A/I332E (antibody) | 32.1 | FcγRIIb Fold [7]: 5.15 fold vs WT
trastuzumab Fc variant S324R (antibody) | 0.71 | 
trastuzumab Fc variant S324Y (antibody) | 0.98 | 
trastuzumab Fc variant T335D (antibody) | 2.79 | 
trastuzumab Fc variant V240I/V266I (antibody) | 1.72 | 
trastuzumab Fc variant V264I/S298A/I332E (antibody) | 16.5 | 
trastuzumab Fc variant Y278T (antibody) | 1.87 | 
wild type alemtuzumab (Campath), IgG1, expressed in 293T cells (antibody) |  | Kd [1]: 730 nM; Kd [2]: 68 nM; ADCC EC50 (ng/ml), DoHH-2 targets, PBMCs heterozygous V158/F158 FcγRIIIa [3]: 9.9 ng/mL

Second part, led by results:

FcγRIIIa Fold [4] [fold vs WT] | Substance | also measured
56.1 | alemtuzumab Fc variant S239D/I332E (antibody) | ADCC EC50 (ng/ml), DoHH-2 targets, PBMCs heterozygous V158/F158 FcγRIIIa [3]: 3 ng/mL; ADCC Fold Improvement Over WT [3]: 3.3 fold
0.85 | trastuzumab Fc variant E233D (antibody) | 
8.7 | trastuzumab Fc variant E272Y (antibody) | 
0.75 | trastuzumab Fc variant E333H (antibody) | 
6.11 | trastuzumab Fc variant K274E (antibody) | 
1.41 | trastuzumab Fc variant K274T (antibody) | 
1.06 | trastuzumab Fc variant K274Y (antibody) | 
1.43 | trastuzumab Fc variant K326I (antibody) | 
0.07 | trastuzumab Fc variant L234I/L235D (antibody) | 
0.66 | trastuzumab Fc variant N276R (antibody) | 
0.41 | trastuzumab Fc variant N276S (antibody) | 
1.09 | trastuzumab Fc variant P230A (antibody) | 
1.87 | trastuzumab Fc variant P230A/E233D/I332E (antibody) | 
22.4 | trastuzumab Fc variant S239D/A330Y/I332E/L234I (antibody) | 
7.04 | trastuzumab Fc variant S239D/A330Y/I332E/L235D (antibody) | 
17.7 | trastuzumab Fc variant S239D/A330Y/I332E/V264T (antibody) | 
59.1 | trastuzumab Fc variant S239D/I332E/A330I (antibody) | 
36.6 | trastuzumab Fc variant S239D/V264I/I332E (antibody) | FcγRIIb Fold [7]: 14.4 fold vs WT
12.9 | trastuzumab Fc variant S239N/A330L/I332E (antibody) | 
14.2 | trastuzumab Fc variant S239N/A330Y/I332E (antibody) | 
1.15 | trastuzumab Fc variant S324I (antibody) | 
117 | trastuzumab Fc variant S324V (antibody) | 
2.58 | trastuzumab Fc variant T335R (antibody) | 
1.56 | trastuzumab Fc variant T335Y (antibody) | 
0.79 | trastuzumab Fc variant V273I (antibody) | 
1.01 | trastuzumab Fc variant V302I (antibody) | 
0.83 | trastuzumab Fc variant V323I (antibody) | 
0.9 | trastuzumab Fc variant Y278E (antibody) | 
0.41 | trastuzumab Fc variant Y278W (antibody) | 
